Laboratory results: the RNAGym collection of RNA variant scans (doi:10.1093/molbev/msab373)

B1: Azoarcus group I ribozyme (parent)
chain: GUGCCUUGCGCCGGGAAACCACGCAAGGGAUGGUGUCAAAUUCGGCGAAACCUAAGCGCCCGCCCGGGCGUAUGGCAACGCCGAGCCAAGCUUCGGCGCCUGCGCCGAUGAAGGUGUAGAGACUAGACGGCACCCACCUAAGGCAAACGCUAUGGUGAAGGCAUAGUCCAGGGAGUGGCGAAAGUCACACAAACCGG

Variants of: B1
Test: reverse-splicing fitness (ratio to wild type); higher = more active; in vitro selection; Mg2+ level not given
In short: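 An in vitro group I ribozyme library with randomized positions was T7-transcribed and gel-purified. In triplicate, 10 pmol RNA in EPPS pH 7.5 was reacted with 50 pmoles of a 30-nt RNA substrate for 1 h at 37 °C across several added MgCl2 levels (1–48 mM), then stopped with EDTA. Products were reverse transcribed from a substrate-complementary primer, PCR-amplified and sequenced (HiSeq 4000). Fitness is a variant's read proportion after selection over that before, normalised to wild type.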

Row | Variant | reverse-splicing fitness
1 | GUGCCUUGCGCCGGGAAACCACGCAAGGGAUGGUGUCAAAUUCGGCGAAACCUAAGCGCCCGCCCGGGCGUAUGGCAACGCGGAGCCAAGCUUCGGCGCCUGCGCCGAUGAAGGUGUAGUGACUAGACGGCACCCACCUAAGGCUAACGUUAUGGUGAAGGCAUAGUCCAGGGAGCGGCGAAAGUCACACAAACCGG | 0.0591
2 | GUGCCUUGCGCCGGGAAACCACGCAAGGGAUGGUGUCAAAUUCGGCGAAACCUAAGCGCCCGCCCGGGCGUAUGGCAACGCGGAGCCAAGCUUCGGCGCCUGCGCCGAUGAAGGUGUAGUGACUAGACGGCACCCACCUAAGGCUAACGUUAUGGUGAAGGCAUAGUCCAGGGAGAGGCGAAAGUCACACAAACCGG | 0.0449
3 | GUGCCUUGCGCCGGGAAACCACGCAAGGGAUGGUGUCAAAUUCGGCGAAACCUAAGCGCCCGCCCGGGCGUAUGGCAACGCGGAGCCAAGCUUCGGCGCCUGCGCCGAUGAAGGUGUAGUGACUAGACGGCACCCACCUAAGGCUAACGGUAUGGUGAAGGCAUAGUCGAGGGAGGGGCGAAAGUCACACAAACCGG | 0.00182
4 | GUGCCUUGCGCCGGGAAACCACGCAAGGGAUGGUGUCAAAUUCGGCGAAACCUAAGCGCCCGCCCGGGCGUAUGGCAACGCGGAGCCAAGCUUCGGCGCCUGCGCCGAUGAAGGUGUAGUGACUAGACGGCACCCACCUAAGGCUAACGGUAUGGUGAAGGCAUAGUCGAGGGAGAGGCGAAAGUCACACAAACCGG | 0.00237
5 | GUGCCUUGCGCCGGGAAACCACGCAAGGGAUGGUGUCAAAUUCGGCGAAACCUAAGCGCCCGCCCGGGCGUAUGGCAACGCGGAGCCAAGCUUCGGCGCCUGCGCCGAUGAAGGUGUAGUGACUAGACGGCACCCACCUAAGGCUAACGGUAUGGUGAAGGCAUAGUCGAGGGAGCGGCGAAAGUCACACAAACCGG | 0.0022
6 | GUGCCUUGCGCCGGGAAACCACGCAAGGGAUGGUGUCAAAUUCGGCGAAACCUAAGCGCCCGCCCGGGCGUAUGGCAACGCGGAGCCAAGCUUCGGCGCCUGCGCCGAUGAAGGUGUAGUGACUAGACGGCACCCACCUAAGGCUAACGUUAUGGUGAAGGCAUAGUCCAGGGAGUGGCGAAAGUCACACAAACCGG | 0.131
7 | GUGCCUUGCGCCGGGAAACCACGCAAGGGAUGGUGUCAAAUUCGGCGAAACCUAAGCGCCCGCCCGGGCGUAUGGCAACGCGGAGCCAAGCUUCGGCGCCUGCGCCGAUGAAGGUGUAGUGACUAGACGGCACCCACCUAAGGCUAACGUUAUGGUGAAGGCAUAGUCGAGGGAGGGGCGAAAGUCACACAAACCGG | 0.00167
8 | GUGCCUUGCGCCGGGAAACCACGCAAGGGAUGGUGUCAAAUUCGGCGAAACCUAAGCGCCCGCCCGGGCGUAUGGCAACGCGGAGCCAAGCUUCGGCGCCUGCGCCGAUGAAGGUGUAGUGACUAGACGGCACCCACCUAAGGCUAACGUUAUGGUGAAGGCAUAGUCGAGGGAGAGGCGAAAGUCACACAAACCGG | 0.00248
9 | GUGCCUUGCGCCGGGAAACCACGCAAGGGAUGGUGUCAAAUUCGGCGAAACCUAAGCGCCCGCCCGGGCGUAUGGCAACGCGGAGCCAAGCUUCGGCGCCUGCGCCGAUGAAGGUGUAGUGACUAGACGGCACCCACCUAAGGCUAACGUUAUGGUGAAGGCAUAGUCGAGGGAGCGGCGAAAGUCACACAAACCGG | 0.00331
10 | GUGCCUUGCGCCGGGAAACCACGCAAGGGAUGGUGUCAAAUUCGGCGAAACCUAAGCGCCCGCCCGGGCGUAUGGCAACGCGGAGCCAAGCUUCGGCGCCUGCGCCGAUGAAGGUGUAGUGACUAGACGGCACCCACCUAAGGCUAACGGUAUGGUGAAGGCAUAGUCAAGGGAGCGGCGAAAGUCACACAAACCGG | 0.00187
11 | GUGCCUUGCGCCGGGAAACCACGCAAGGGAUGGUGUCAAAUUCGGCGAAACCUAAGCGCCCGCCCGGGCGUAUGGCAACGCGGAGCCAAGCUUCGGCGCCUGCGCCGAUGAAGGUGUAGUGACUAGACGGCACCCACCUAAGGCUAACGGUAUGGUGAAGGCAUAGUCAAGGGAGGGGCGAAAGUCACACAAACCGG | 0.00205
12 | GUGCCUUGCGCCGGGAAACCACGCAAGGGAUGGUGUCAAAUUCGGCGAAACCUAAGCGCCCGCCCGGGCGUAUGGCAACGCGGAGCCAAGCUUCGGCGCCUGCGCCGAUGAAGGUGUAGUGACUAGACGGCACCCACCUAAGGCUAACGGUAUGGUGAAGGCAUAGUCAAGGGAGAGGCGAAAGUCACACAAACCGG | 0.0026
13 | GUGCCUUGCGCCGGGAAACCACGCAAGGGAUGGUGUCAAAUUCGGCGAAACCUAAGCGCCCGCCCGGGCGUAUGGCAACGCGGAGCCAAGCUUCGGCGCCUGCGCCGAUGAAGGUGUAGUGACUAGACGGCACCCACCUAAGGCUAACGUUAUGGUGAAGGCAUAGUCUAGGGAGAGGCGAAAGUCACACAAACCGG | 0.00283
14 | GUGCCUUGCGCCGGGAAACCACGCAAGGGAUGGUGUCAAAUUCGGCGAAACCUAAGCGCCCGCCCGGGCGUAUGGCAACGCGGAGCCAAGCUUCGGCGCCUGCGCCGAUGAAGGUGUAGUGACUAGACGGCACCCACCUAAGGCUAACGUUAUGGUGAAGGCAUAGUCUAGGGAGGGGCGAAAGUCACACAAACCGG | 0.00159
15 | GUGCCUUGCGCCGGGAAACCACGCAAGGGAUGGUGUCAAAUUCGGCGAAACCUAAGCGCCCGCCCGGGCGUAUGGCAACGCGGAGCCAAGCUUCGGCGCCUGCGCCGAUGAAGGUGUAGUGACUAGACGGCACCCACCUAAGGCUAACGUUAUGGUGAAGGCAUAGUCUAGGGAGCGGCGAAAGUCACACAAACCGG | 0.00342
16 | GUGCCUUGCGCCGGGAAACCACGCAAGGGAUGGUGUCAAAUUCGGCGAAACCUAAGCGCCCGCCCGGGCGUAUGGCAACGCGGAGCCAAGCUUCGGCGCCUGCGCCGAUGAAGGUGUAGUGACUAGACGGCACCCACCUAAGGCUAACGGUAUGGUGAAGGCAUAGUCAAGGGAGUGGCGAAAGUCACACAAACCGG | 0.00271
17 | GUGCCUUGCGCCGGGAAACCACGCAAGGGAUGGUGUCAAAUUCGGCGAAACCUAAGCGCCCGCCCGGGCGUAUGGCAACGCGGAGCCAAGCUUCGGCGCCUGCGCCGAUGAAGGUGUAGUGACUAGACGGCACCCACCUAAGGCUAACGGUAUGGUGAAGGCAUAGUCGAGGGAGUGGCGAAAGUCACACAAACCGG | 0.00287
18 | GUGCCUUGCGCCGGGAAACCACGCAAGGGAUGGUGUCAAAUUCGGCGAAACCUAAGCGCCCGCCCGGGCGUAUGGCAACGCGGAGCCAAGCUUCGGCGCCUGCGCCGAUGAAGGUGUAGUGACUAGACGGCACCCACCUAAGGCUAACGGUAUGGUGAAGGCAUAGUCUAGGGAGUGGCGAAAGUCACACAAACCGG | 0.00283
19 | GUGCCUUGCGCCGGGAAACCACGCAAGGGAUGGUGUCAAAUUCGGCGAAACCUAAGCGCCCGCCCGGGCGUAUGGCAACGCGGAGCCAAGCUUCGGCGCCUGCGCCGAUGAAGGUGUAGUGACUAGACGGCACCCACCUAAGGCUAACGGUAUGGUGAAGGCAUAGUCCAGGGAGAGGCGAAAGUCACACAAACCGG | 0.00715
20 | GUGCCUUGCGCCGGGAAACCACGCAAGGGAUGGUGUCAAAUUCGGCGAAACCUAAGCGCCCGCCCGGGCGUAUGGCAACGCGGAGCCAAGCUUCGGCGCCUGCGCCGAUGAAGGUGUAGUGACUAGACGGCACCCACCUAAGGCUAACGGUAUGGUGAAGGCAUAGUCCAGGGAGGGGCGAAAGUCACACAAACCGG | 0.00267
21 | GUGCCUUGCGCCGGGAAACCACGCAAGGGAUGGUGUCAAAUUCGGCGAAACCUAAGCGCCCGCCCGGGCGUAUGGCAACGCGGAGCCAAGCUUCGGCGCCUGCGCCGAUGAAGGUGUAGUGACUAGACGGCACCCACCUAAGGCUAACGGUAUGGUGAAGGCAUAGUCCAGGGAGCGGCGAAAGUCACACAAACCGG | 0.0112
22 | GUGCCUUGCGCCGGGAAACCACGCAAGGGAUGGUGUCAAAUUCGGCGAAACCUAAGCGCCCGCCCGGGCGUAUGGCAACGCGGAGCCAAGCUUCGGCGCCUGCGCCGAUGAAGGUGUAGUGACUAGACGGCACCCACCUAAGGCUAACGUUAUGGUGAAGGCAUAGUCGAGGGAGUGGCGAAAGUCACACAAACCGG | 0.00513
23 | GUGCCUUGCGCCGGGAAACCACGCAAGGGAUGGUGUCAAAUUCGGCGAAACCUAAGCGCCCGCCCGGGCGUAUGGCAACGCGGAGCCAAGCUUCGGCGCCUGCGCCGAUGAAGGUGUAGUGACUAGACGGCACCCACCUAAGGCUAACGUUAUGGUGAAGGCAUAGUCUAGGGAGUGGCGAAAGUCACACAAACCGG | 0.00488
24 | GUGCCUUGCGCCGGGAAACCACGCAAGGGAUGGUGUCAAAUUCGGCGAAACCUAAGCGCCCGCCCGGGCGUAUGGCAACGCGGAGCCAAGCUUCGGCGCCUGCGCCGAUGAAGGUGUAGUGACUAGACGGCACCCACCUAAGGCUAACGUUAUGGUGAAGGCAUAGUCAAGGGAGUGGCGAAAGUCACACAAACCGG | 0.00259
25 | GUGCCUUGCGCCGGGAAACCACGCAAGGGAUGGUGUCAAAUUCGGCGAAACCUAAGCGCCCGCCCGGGCGUAUGGCAACGCGGAGCCAAGCUUCGGCGCCUGCGCCGAUGAAGGUGUAGUGACUAGACGGCACCCACCUAAGGCUAACGUUAUGGUGAAGGCAUAGUCAAGGGAGGGGCGAAAGUCACACAAACCGG | 0.00157
26 | GUGCCUUGCGCCGGGAAACCACGCAAGGGAUGGUGUCAAAUUCGGCGAAACCUAAGCGCCCGCCCGGGCGUAUGGCAACGCGGAGCCAAGCUUCGGCGCCUGCGCCGAUGAAGGUGUAGUGACUAGACGGCACCCACCUAAGGCUAACGUUAUGGUGAAGGCAUAGUCAAGGGAGCGGCGAAAGUCACACAAACCGG | 0.00197
27 | GUGCCUUGCGCCGGGAAACCACGCAAGGGAUGGUGUCAAAUUCGGCGAAACCUAAGCGCCCGCCCGGGCGUAUGGCAACGCGGAGCCAAGCUUCGGCGCCUGCGCCGAUGAAGGUGUAGUGACUAGACGGCACCCACCUAAGGCUAACGUUAUGGUGAAGGCAUAGUCAAGGGAGAGGCGAAAGUCACACAAACCGG | 0.00183
28 | GUGCCUUGCGCCGGGAAACCACGCAAGGGAUGGUGUCAAAUUCGGCGAAACCUAAGCGCCCGCCCGGGCGUAUGGCAACGCGGAGCCAAGCUUCGGCGCCUGCGCCGAUGAAGGUGUAGUGACUAGACGGCACCCACCUAAGGCUAACGGUAUGGUGAAGGCAUAGUCUAGGGAGGGGCGAAAGUCACACAAACCGG | 0.00234
29 | GUGCCUUGCGCCGGGAAACCACGCAAGGGAUGGUGUCAAAUUCGGCGAAACCUAAGCGCCCGCCCGGGCGUAUGGCAACGCGGAGCCAAGCUUCGGCGCCUGCGCCGAUGAAGGUGUAGUGACUAGACGGCACCCACCUAAGGCUAACGGUAUGGUGAAGGCAUAGUCUAGGGAGAGGCGAAAGUCACACAAACCGG | 0.003
30 | GUGCCUUGCGCCGGGAAACCACGCAAGGGAUGGUGUCAAAUUCGGCGAAACCUAAGCGCCCGCCCGGGCGUAUGGCAACGCGGAGCCAAGCUUCGGCGCCUGCGCCGAUGAAGGUGUAGUGACUAGACGGCACCCACCUAAGGCUAACGGUAUGGUGAAGGCAUAGUCUAGGGAGCGGCGAAAGUCACACAAACCGG | 0.00223
